Data reported in the Human Domainome abundance scans (Beltran et al. 2025).
± gives the uncertainty stated by the source.

B1: Myocardin, residues 363 to 406; numbered along this chain, Q8IZQ8 (parent)
chain: KPGPLPPNLDDLKVSELRQQLRIRGLPVSGTKTALMDRLRPFQD

Variants of: B1
Experiment: abundance fitness (aPCA) (normalised: wild type 0, dead -1); higher = more abundant; growth selection in yeast, the domain comes from the species named
Settings: Homo sapiens

KPGPLPPNLDDLKVSELRQQLRIRGLPVSGTKTALMDRIRPFQD [L39I] and KPGPLPPNLDDLKVSELRQQLRIRGLPVSGTKTALMDRDRPFQD [L39D] are within error of each other in abundance fitness: -0.474 ± 0.18 for the first, -0.283 ± 0.16 for the second.

KPGPLPPNLDDLKVSELRQQLRIRGLPVSGTKTALMDRKRPFQD [L39K] and KPGPLPPNLDDLKVSELRQQLRIRGLPVSGTKTALMDRHRPFQD [L39H] are within error of each other in abundance fitness: -0.595 ± 0.19 for the first, -0.611 ± 0.17 for the second.

Going from KPGPLPPNLDDLKVSELRQQLRIRGLPVSGTKTALMDRMRPFQD [L39M] to KPGPLPPNLDDLKVSELRQQLRIRGLPVSGTKTALMDRWRPFQD [L39W], the abundance fitness falls from -0.409 ± 0.12 to -0.77 ± 0.1.

First: KPGPLPPNLDDLKVSELRQQLRIRGLPVSGTKTALMTRLRPFQD [D37T]
Second: KPGPLPPNLDDLKVSELRQQLRIRGLPVSGTKTALMNRLRPFQD [D37N]
The abundance fitness of the first is lower: -0.452 ± 0.085 for the first, 0.227 ± 0.14 for the second.

Going from KPGPLPPNLDDLKVSELRQQLRIRGLPVSGTKTALMSRLRPFQD [D37S] to KPGPLPPNLDDLKVSELRQQLRIRGLPVSGTKTALMKRLRPFQD [D37K], the abundance fitness rises from -0.892 ± 0.11 to -0.245 ± 0.11.

First: KPGPLPPNLDDLKVSELRQQLRIRGLPVSGTKTALMIRLRPFQD [D37I]
Second: KPGPLPPNLDDLKVSELRQQLRIRGLPVSGTKTALMPRLRPFQD [D37P]
The abundance fitness of the first is higher: -0.594 ± 0.16 for the first, -0.966 ± 0.15 for the second.

Going from KPGPLPPNLDDLKVSELRQQLRIRGLPVSGTKTALMYRLRPFQD [D37Y] to KPGPLPPNLDDLKVSELRQQLRIRGLPVSGTKTALMWRLRPFQD [D37W], the abundance fitness falls from -0.271 ± 0.22 to -0.829 ± 0.1.

KPGPLPPNLDDLKVSELRQQLRIRGLPVSGTKTALMLRLRPFQD [D37L] and KPGPLPPNLDDLKVSELRQQLRIRGLPVSGTKTALMCRLRPFQD [D37C] are within error of each other in abundance fitness: -0.51 ± 0.079 for the first, -0.39 ± 0.14 for the second.

KPGPLPPNLDDLKVSELRQQLRIRGLPVSGTKTALMQRLRPFQD [D37Q] and KPGPLPPNLDDLKVSELRQQLRIRGLPVSGTKTALMARLRPFQD [D37A] are within error of each other in abundance fitness: -0.165 ± 0.098 for the first, -0.265 ± 0.062 for the second.

First: KPGPLPPNLDDLKVSELRQQLRIRGLPVSGTKTALMVRLRPFQD [D37V]
Second: KPGPLPPNLDDLKVSELRQQLRIRGLPVSGTKTALMFRLRPFQD [D37F]
The abundance fitness of the first is higher: -0.632 ± 0.081 for the first, -1.21 ± 0.22 for the second.

KPGPLPPNLDDLKVSELRQQLRIRGLPVSGTKTALMERLRPFQD [D37E] and KPGPLPPNLDDLKVSELRQQLRIRGLPVSGTKTALMMRLRPFQD [D37M] are within error of each other in abundance fitness: 0.246 ± 0.076 for the first, -0.264 ± 0.44 for the second.

KPGPLPPNLDDLKVSELRQQLRIRGLPVSGTKTALMGRLRPFQD [D37G] and KPGPLPPNLDDLKVSELRQQLRIRGLPVSGTKTALMHRLRPFQD [D37H] are within error of each other in abundance fitness: -0.404 ± 0.059 for the first, -0.385 ± 0.15 for the second.

First: KPGPLPPNLDDLKVSELRQQLRIRGLPVSGTKTALMDWLRPFQD [R38W]
Second: KPGPLPPNLDDLKVSELRQQLRIRGLPVSGTKTALMDYLRPFQD [R38Y]
The abundance fitness of the first is lower: -1.02 ± 0.13 for the first, -0.519 ± 0.12 for the second.

KPGPLPPNLDDLKVSELRQQLRIRGLPVSGTKTALMDALRPFQD [R38A] and KPGPLPPNLDDLKVSELRQQLRIRGLPVSGTKTALMDSLRPFQD [R38S] are within error of each other in abundance fitness: -0.592 ± 0.13 for the first, -0.479 ± 0.082 for the second.

First: KPGPLPPNLDDLKVSELRQQLRIRGLPVSGTKTALMDLLRPFQD [R38L]
Second: KPGPLPPNLDDLKVSELRQQLRIRGLPVSGTKTALMDMLRPFQD [R38M]
The abundance fitness of the first is lower: -0.671 ± 0.088 for the first, -0.445 ± 0.11 for the second.

KPGPLPPNLDDLKVSELRQQLRIRGLPVSGTKTALMDDLRPFQD [R38D] and KPGPLPPNLDDLKVSELRQQLRIRGLPVSGTKTALMDFLRPFQD [R38F] are within error of each other in abundance fitness: -0.795 ± 0.19 for the first, -0.907 ± 0.18 for the second.

KPGPLPPNLDDLKVSELRQQLRIRGLPVSGTKTALMDKLRPFQD [R38K] and KPGPLPPNLDDLKVSELRQQLRIRGLPVSGTKTALMDGLRPFQD [R38G] are within error of each other in abundance fitness: -0.39 ± 0.094 for the first, -0.469 ± 0.071 for the second.

First: KPGPLPPNLDDLKVSELRQQLRIRGLPVSGTKTALMDPLRPFQD [R38P]
Second: KPGPLPPNLDDLKVSELRQQLRIRGLPVSGTKTALMDELRPFQD [R38E]
The abundance fitness of the first is higher: -0.219 ± 0.13 for the first, -0.451 ± 0.086 for the second.

Going from KPGPLPPNLDDLKVSELRQQLRIRGLPVSGTKTALMDHLRPFQD [R38H] to KPGPLPPNLDDLKVSELRQQLRIRGLPVSGTKTALMDVLRPFQD [R38V], the abundance fitness rises from -1.2 ± 0.26 to -0.735 ± 0.082.

Compared with KPGPLPPNLDDLKVSELRQQLRIRGLPVSGTKTALMDTLRPFQD [R38T], KPGPLPPNLDDLKVSELRQQLRIRGLPVSGTKTALMDCLRPFQD [R38C] is lower in abundance fitness: -0.316 ± 0.16 for the first, -0.929 ± 0.18 for the second.

Going from KPGPLPPNLDDLKVSELRQQLRIRGLPVSGTKTALMDNLRPFQD [R38N] to KPGPLPPNLDDLKVSELRQQLRIRGLPVSGTKTALMDRLRSFQD [P41S], the abundance fitness rises from -0.765 ± 0.2 to 0.064 ± 0.11.

First: KPGPLPPNLDDLKVSELRQQLRIRGLPVSGTKTALMDRLRVFQD [P41V]
Second: KPGPLPPNLDDLKVSELRQQLRIRGLPVSGTKTALMDRLRRFQD [P41R]
The abundance fitness of the first is higher: -0.11 ± 0.087 for the first, -0.256 ± 0.058 for the second.

First: KPGPLPPNLDDLKVSELRQQLRIRGLPVSGTKTALMDRLREFQD [P41E]
Second: KPGPLPPNLDDLKVSELRQQLRIRGLPVSGTKTALMDRLRWFQD [P41W]
The abundance fitness of the first is higher: 0.087 ± 0.088 for the first, -0.161 ± 0.09 for the second.

KPGPLPPNLDDLKVSELRQQLRIRGLPVSGTKTALMDRLRLFQD [P41L] and KPGPLPPNLDDLKVSELRQQLRIRGLPVSGTKTALMDRLRDFQD [P41D] are within error of each other in abundance fitness: -0.132 ± 0.082 for the first, -0.325 ± 0.27 for the second.

KPGPLPPNLDDLKVSELRQQLRIRGLPVSGTKTALMDRLRTFQD [P41T] and KPGPLPPNLDDLKVSELRQQLRIRGLPVSGTKTALMDRLRCFQD [P41C] are within error of each other in abundance fitness: -0.351 ± 0.12 for the first, -0.151 ± 0.085 for the second.

Going from KPGPLPPNLDDLKVSELRQQLRIRGLPVSGTKTALMDRLRKFQD [P41K] to KPGPLPPNLDDLKVSELRQQLRIRGLPVSGTKTALMDRLRAFQD [P41A], the abundance fitness rises from -0.305 ± 0.077 to 0.037 ± 0.077.

KPGPLPPNLDDLKVSELRQQLRIRGLPVSGTKTALMDRLRIFQD [P41I] and KPGPLPPNLDDLKVSELRQQLRIRGLPVSGTKTALMDRLRHFQD [P41H] are within error of each other in abundance fitness: -0.001 ± 0.21 for the first, -0.14 ± 0.11 for the second.

Compared with KPGPLPPNLDDLKVSELRQQLRIRGLPVSGTKTALMDRLRGFQD [P41G], KPGPLPPNLDDLKVSELRQQLRIRGLPVSGTKTALMDRLRYFQD [P41Y] is lower in abundance fitness: -0.084 ± 0.055 for the first, -0.455 ± 0.13 for the second.

KPGPLPPNLDDLKVSELRQQLRIRGLPVSGTKTALMDRLRMFQD [P41M] and KPGPLPPNLDDLKVSELRQQLRIRGLPVSGTKTALMDRLRFFQD [P41F] are within error of each other in abundance fitness: -0.231 ± 0.3 for the first, -0.27 ± 0.12 for the second.
